# Biological target: T1, integrin alpha2b beta3 (UniProt P08514 32-993; P05106 27-718)
# T1 construct: also called integrin α2b β3; integrin alpha2 beta3
# Assay: ELISA on coated integrin alpha2b beta3 (100 ng per well), anti-human Fab-HRP, absorbance 405 nm
binder,measurement,value
"abciximab (ReoPro) (Fab, V domains shown) VH: EVQLQQSGTVLARPGASVKMSCEASGYTFTNYWMHWVKQRPGQGLEWIGAIYPGNSDTSYIQKFKGKAKLTAVTSTTSVYMELSSLTNEDSAVYYCTLYDGYYVFAYWGQGTLVTVSA VL: EIVLTQSPVTLSVTPGDSVSLSCRASRDISNNLHWFQQTSHESPRLLIKYASQSMSGIPSRFSGSGSGTDFTLSINSVETEDFGMYFCQQTNSWPYTFGGGTKLEIK",EC50 (read off the curve),~800 pM

# Source: patent US20140056926A1 (SNU R AND DB FOUNDATION, published 2014)
